{
  "source": "patent US10253089B2",
  "about": "“Matrix metalloproteinase cleavable protein polymers for cancer gene therapy” (The University of Utah Research Foundation, priority 2012, dated 2019)",
  "key": {"[1]": {"tested_on": "JHU-022 tumors", "assay": "GDEPT (HSV-tk/GCV) efficacy study, tumor size and luciferase imaging", "assay_type": "in vivo, nude mice", "details": "4 wt % with virus + GCV", "method": "In order to fully illustrate the potential of SELP as an injectable, in situ gel forming delivery system for the treatment of HNSCC solid tumors, a study was performed on the efficacy of this system using a GDEPT approach. The system chosen was herpes simplex virus thymidine kinase (HSV-tk) as the enzyme, and ganciclovir (GCV) as the prodrug. To accomplish this, a custom adenoviral construct was designed and used for this study. The construct contained genes which encode for HSV-tk and genes which encode for luciferase, a common reporter enzyme. This novel construct allowed both efficacy and biodistribution to be assessed simultaneously in vivo. Specifically, by combining these two genes in one virus, it becomes possible to track the location of transfection while simultaneously evaluating the efficacy of the treatment.\nAppropriate controls were included. Luciferase expression was measured by injecting luciferin potassium salt intraperitoneally, and following appropriate time to allow distribution of luciferin the animals were imaged using a Xenogen IVIS100 imaging system (Caliper Life Sciences, Hopkinton, Mass.) which allows visualization of luciferase expression without sacrificing the animal. As a measure of efficacy the tumors were measured with calipers every 3 to 4 days. […]"}, "[2]": {"assay": "One week acute toxicity study (weight, CBC)", "assay_type": "in vivo, CD-1 immunocompetent mice", "method": "Mice were anesthetized and maintained under anesthesia with 3% isofluorane in oxygen. After shaving and cleaning the injection site with 60% isopropanol, mice were subcutaneously injected in the right flank with 50 μl of solution using a 250 μl Hamilton syringe with a 26G needle. […] The injection site was gently clamped for 10 seconds to prevent leakage, after which mice were returned to their cages. For consistency, the day of viral injection was defined as day 0.\nFor treatment groups, a suspension of 1 mg GCV (Sigma Aldrich, St. Louis, Mo.) per ml of 0.9% physiological saline was prepared and sterilized through a 0.22 μm filter. Each day, animal weights were recorded, injection sites cleaned with 60% isopropanol, and mice injected i.p. with 1 mg/ml GCV suspension through a 26G needle sufficient for a total dose of 25 mg/kg body weight. Average dosing volume for these studies was approximately 0.6 ml. Mice were injected daily for the first four weeks of the 12 week recovery study, and for the entirety of the 1, 2, and 4 week studies.\nUpon completion of each study, mice were individually euthanized using 70% CO2 in oxygen, with euthanasia confirmed by lack of breathing for 10 seconds. […] Injection sites were dissected for visual observation of local inflammation. Complete blood counts (CBCs) were performed within 2 hours of blood sample collection using a CBC-DIFF (Heska, Loveland, Colo.) blood count analyzer. Following CBC, samples were centrifuged at 10,000 rpm for 2.5 minutes and rapidly frozen at −80° C. for future analysis.\nSafety studies were conducted in immunocompetent mice. In order to examine the ability of SELP to reduce the acute toxicity of the HSV-Tk/GCV system, 4-6 week old female CD-1 immunocompetent mice were injected subcutaneously with the conditions listed in Table 5. Weight was monitored daily for one week and daily injections of 25 mg/kg, intraperitoneal GCV were given to some groups as indicated in Table 5.\nAt the conclusion of the one week study, mice were sacrificed, and blood and organs were collected for analysis. […] These assessments were performed using a complete blood count."}, "[3]": {"molecular_target": "T1, MMP-2 (Homo sapiens, UniProt P08253)", "T1 sequence (P08253 110-660)": "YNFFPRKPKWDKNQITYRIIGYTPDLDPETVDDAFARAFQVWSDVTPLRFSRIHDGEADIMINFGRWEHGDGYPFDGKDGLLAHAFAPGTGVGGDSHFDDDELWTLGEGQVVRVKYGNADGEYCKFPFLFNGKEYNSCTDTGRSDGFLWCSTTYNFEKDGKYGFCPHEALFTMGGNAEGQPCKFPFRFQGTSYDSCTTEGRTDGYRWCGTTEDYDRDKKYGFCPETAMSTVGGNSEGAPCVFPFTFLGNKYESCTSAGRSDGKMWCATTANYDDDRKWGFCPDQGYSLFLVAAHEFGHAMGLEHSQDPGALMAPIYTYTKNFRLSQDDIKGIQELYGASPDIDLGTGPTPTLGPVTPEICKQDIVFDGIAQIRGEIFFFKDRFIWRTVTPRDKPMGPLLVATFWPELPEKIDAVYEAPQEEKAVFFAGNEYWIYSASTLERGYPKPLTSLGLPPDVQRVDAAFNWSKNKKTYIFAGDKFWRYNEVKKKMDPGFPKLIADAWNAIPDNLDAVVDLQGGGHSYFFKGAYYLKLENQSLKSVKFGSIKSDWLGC", "assay": "Enzymatic digest of polymer by MMP-2, SDS-PAGE", "assay_type": "biochemical", "details": "1 mg/ml polymer, 10 nM and 40 nM MMP-2, 2-48 hours, room temperature", "method": "This buffer recipe is sourced from the Molecular Probes EnzChek Gelatinase/Collagenase Assay Kit (Invitrogen, Carlsbad, Calif.), which was used to confirm the activity of MMP-2 and MMP-9 prior to use. 2× Laemmli Buffer was supplemented with 5% β-mercaptoethanol and added 1:1 by volume to the polymer solutions, which were then placed in a PCR thermal cycler and heated to 95° C. for five minutes to denature the protein. 25 μl of each sample was added to 4-15% Bis-Tris precast PAGE gel and electrophoresis was performed at 200V until the dye front reached the bottom of the gel, approximately 30 minutes. Kaleidoscope protein standard was used as a molecular weight marker. Following electrophoresis, gels were stained with GelCode Blue (colloidal Coomassie formulation) following manufacturer's instructions for staining and destaining.\n100 μl samples of each polymer were digested with a final concentration of 10 nM and 40 nM MMP-2 or MMP-9. MMP samples were incubated at room temperature for 2, 4, 12, 24, 36, and 48 hours and samples were run on PAGE gels and stained with GelCode Blue to visualize band patterns corresponding to protein degradation.\nAdditionally, this digestion is dependent on both time of exposure and concentration of MMP."}},
  "data": [
    {"molecule": "SELP815K: silk-elastin-like protein polymer, longer silk units, fifteen elastin units, lysine elastin unit; monomer repeated 6 times (SEQ ID NO. 21) (protein, monomer repeated 6 times; Hybrid of Homo sapein and Bombyx mori) MDPVVLQRRDWENPGVTQLNRLAAHPPFASDPMGAGSGAGAGSGAGAGSGVGVPGVGVPGVGVPGVGVPGKGVPGVGVPGVGVPGVGVPGVGVPGVGVPGVGVPGVGVPGVGVPGVGVPGVGVPGVGVPGAGAGSGAGAGSGAGAGSGAGAGSGAGAGSGAGAGAGSGAGAGSGAGAGSGVGVPGVGVPGVGVPGVGVPGKGVPGVGVPGVGVPGVGVPGVGVPGVGVPGVGVPGVGVPGVGVPGVGVPGVGVPGVGVPGAGAGSGAGAGSGAGAGSGAGAGSGAGAGSGAGAGAGSGAGAGSGAGAGSGVGVPGVGVPGVGVPGVGVPGKGVPGVGVPGVGVPGVGVPGVGVPGVGVPGVGVPGVGVPGVGVPGVGVPGVGVPGVGVPGAGAGSGAGAGSGAGAGSGAGAGSGAGAGSGAGAGAGSGAGAGSGAGAGSGVGVPGVGVPGVGVPGVGVPGKGVPGVGVPGVGVPGVGVPGVGVPGVGVPGVGVPGVGVPGVGVPGVGVPGVGVPGVGVPGAGAGSGAGAGSGAGAGSGAGAGSGAGAGSGAGAGAGSGAGAGSGAGAGSGVGVPGVGVPGVGVPGVGVPGKGVPGVGVPGVGVPGVGVPGVGVPGVGVPGVGVPGVGVPGVGVPGVGVPGVGVPGVGVPGAGAGSGAGAGSGAGAGSGAGAGSGAGAGSGAGAGAGSGAGAGSGAGAGSGVGVPGVGVPGVGVPGVGVPGKGVPGVGVPGVGVPGVGVPGVGVPGVGVPGVGVPGVGVPGVGVPGVGVPGVGVPGVGVPGAGAGSGAGAGSGAGAGSGAGAGSGAGAGSGAGAMDPGRYQDLRSHHHHHH", "values": [
      {"measurement": "tumor regrowth / recovery observation", "setting": "[1]; out to day 33", "value": "full recovery, with no evidence of a tumor out to day 33"},
      {"measurement": "reduction in tumor size compared to virus in saline", "setting": "[1]; over 33 days", "value": 3, "unit": "fold"},
      {"measurement": "GRA", "setting": "[2]", "value": "1.125 ± 0.39"},
      {"measurement": "LYM", "setting": "[2]", "value": "4.475 ± 0.87"},
      {"measurement": "MON", "setting": "[2]", "value": "0.7 ± 0.27"},
      {"measurement": "WBC", "setting": "[2]", "value": "6.3 ± 0.79"},
      {"measurement": "digestion by MMP-2", "setting": "[3]", "value": "is not"}
    ]}
  ]
}
